Measurements reported in the DeepSol protein solubility set.

Test: soluble on expression in E. coli; label from the status in PepcDB or PDB records

Sequence	soluble on expression in E. coli
MVVTRIAPSPTGDPHVGTAYIALFNYAWARRNGGRFIVRIEDTDRARYVPGAEERILAALKWLGLSYDEGPDVAAPTGPYRQSERLPLYQKYAEELLKRGWAYRAFETPEELEQIRKEKGGYDGRARNIPPEEAEERARRGEPHVIRLKVPRPGTTEVKDELRGVVVYDNQEIPDVVLLKSDGYPTYHLANVVDDHLMGVTDVIRAEEWLVSTPIHVLLYRAFGWEAPRFYHMPLLRNPDKTKISKRKSHTSLDWYKAEGFLPEALRNYLCLMGFSMPDGREIFTLEEFIQAFTWERVSLGGPVFDLEKLRWMNGKYIREVLSLEEVAERVKPFLREAGLSWESEAYLRRAVELMRPRFDTLKEFPEKARYLFTEDYPVSEKAQRKLEEGLPLLKELYPRLRAQEEWTEAALEALLRGFAAEKGVKLGQVAQPLRAALTGSLETPGLFEILALLGKERALRRLERALA	soluble
MRLTTKGRYAVTAMLDLALHAQQGPVSLADISERQGISLSYLEQLFAKLRRGNLVTSVRGPGGGYQLSRHMSGIHVAQVIDAVNESVDATRCQGQGDCHSGDTCLTHHLWCDLSLQIHEFLSGISLADLVSRQEVQEVALRQDERRCSGKTPRLDKIEASAID	not soluble
MLNARINQSIKCNQVRIHNVADKITWAELTKIEQLLKIIPQWEKLIKIQTTSKIFNSTSWVASWLETFWQKNWQLNVLIAWCDDELIAIVPLYYQQNNSILPMKVLYPLGQGEAEAQEISTEYTDILINEKFQEHLLPKIQQWILNLKADQLHWHALLHNSSTRNILADYEQTKSNEATRYIVNGLNWSLENLSKNMRSRYRRGLNQLDKLNATIDWVEQSDFDQYWQLMKKLHQKRWQGKNAKGAFCSDEFNQFHAKFREKSPKNIAMSAIWVNDTPIAIHYYFSDATTLYFYQSGWNESEYSHLSPGLILHLWTIENNNKPYYDFMMGKKKDSYKAKFATLQQPMYNITLTFSPIKLLFYSVFEKIKVKYLSA	not soluble
VAEQKVKRNVELAGVDVILVHRMLKNEVPVSEYLFMTDVVAQCLDESVRKLATPLTHDFEGIGETSTHYIDLATSDMPPAVPDHSFFGLLWADVKFEWHALPYLLGFKKACAGFRSLGRGATEEPAEMG	not soluble
MSSEVEPPQKKKQPWLPDYIVENCLAHISRSYYPKLSLVSSPFALSSYPKSSTKRDIASTTEEYFFHVCLQLPKSPLPTWYTLWIKPDQIEKKKKINTFTGNTRLVQIPSSYHYPFDQVFIFNLYGAMRSSKAMVRPPSYGLVSMF	not soluble
LETLNNASKTIDLQGKISDVDGDTLSITLHGSARFSLNGTQVTFTPNGFVGLDQAVYSVEDGKGGYALANIVAISEDANPPVPNMAPTANDAQFTLDVAKNVTFNIDLVAQRLIADADGDALSIAHIYTANNRATKQGATGITYTPGAFRGVDQFTYVITDGKDGYAINAITVVVNDSTPANKIPTAGPVTAKMLHNDPAITISVNSAVSDADGDTLKIVSISGALGQASINPANALEMLYEPKGFVGTDRFVYVVSDDNGGYAMGEVTVTVTDSNPTAPVANTVQENTLLDTPINIDLSAYISDKETETANLVISNVTNATSPAVATLSGQTVIYTPNGFTGNDILTYTVTDGRHSTNGTIVISVNAHGAHAIQADNLEGGTEPNAPFIHDLSALISTTDPTAGELIVVNAIGGALGTATVTNNILTYTPKLGVFGKDRLIYTVKDSHNPAHYTQGTISI	not soluble
MGSDKIHHHHHHMSFDNLCKLLSEKHPATFASWVLGTPQTSVKVLKTELSIEPIRADYVTFLQLQGRILHLEFQTKLESTPPLPLRMLDYWVRLYRLYRLPITQVVVLLLPPAPGTVIETVFCVETTRHEYRVIRLWEENPELFLNEPALLPLAPLAATTQPQALLQQVVGKVNQLEPRQRPEISAYTQILAGLKYNQDLIRQLFREGMMRESVIYQEILAEGEQLGELRGRKAEGQLLILRQLTRRVGELPQEMLNRIETLSLEQLENLGEALLDFQAIADLEAWFGTLDIGVKMT	not soluble
VAARTGNDPATDVRSTILTAAETCFERFGITKTTMEDVARAADMSRATVYRYFSDRESLIIESVARRARKNMKPARAFIAKWPTIEERLVEGICNNVESGLRDPMVHLLVSPSEMTLANSLLTTSGKAVELTSELWEPILRDAQEAGDIRADVDLALLCEWISELEIMCISQLNGGTGSLERFREKLRAFLVPSLLPAGN	not soluble
MVCSRSVSLLFTLLVGVYASTATDPIDSISTQGADILNRAKLTGQTVRQCSCSEQRVCVEEMKLQAKDCTVPCFQKFSSITSRPNDLKKCFDEKDNILEDFLTCFENRVEACVNDQHGPQIQKTDIRGIFKVTEKSIATQTNTFQTMIKPIKHILDATGDFALCVKDCFLEKNKSGFCFDRKGCQPLVAETKARQSFRACTKKMHWKREAGELCECSVQAGVDSRELRQYCAMFKLMRRRAPMRKSRG	not soluble
MTQYQALIIGFGKAGKTLAATLAKTGWRVAIIEQSASMFGGTCINIGCIPTKTLVHDAEREGDFSVAMQRKAAVVNFLRDKNFHNLADLDNVDVIEGRAEFIDNHTLRVFQADGERVLRGEKIFINTGAESVIPAITGLTTTAGVFDSTGLLSLSQRPARLGILGGGYIGLEFASMFANFGTKVTIFEAAPQFLPREDRDIAQAITRILQEKGVELILNANVQAVSSKEGAVQVETPEGAHLVDALLVASGRKPATAGLQLQNAGVAVNERGGIIVDDYLRTTADNIWAMGDVTGGLQFTYISLDDFRIVRDGLLGDGKRSTRDRQNVPYSVFMTPPLSRVGLTEEQARASGATVQVVTLPVAAIPRARVMNDTRGVLKAVVDVNTQRIVGVSLLCVDSHEMINIVKTVMDADLPYTVLRDQIFTHPTMSESLNDLFSLIK	not soluble
MVSEREQLACLVQQWNENRLDLFHLSYPTEDLEVEGVMRFYFQDGGEKVLTKCVRVSSTATTRAVVDALSEKFLPDLKMLSNDTYSLWEVHENGEERKLLDEEKPLVVQLQWHKDDREGRFLLKKDAAPPVSLLNLQEADQKNTRFAKKKDKEPKKKNQKNFVQVNGGREEAQSQDDIYKQVPFNTFTRTISNPEAVMRKRREKKLETKLKEMMFGGSLKVYGGEIVPTRPYVSILAEINENADRILGAALEKYGLEHSKDDFILVEVSNDDDRKSMSDLREIDGRPIPPTECPLFEMTARSGNGENGFDSFLAIKRKPHDYQVPSTSVVAPSSVTLPMSPLTSLPPQIHNLPVLIVMNNDGHLSTHRITLHEGVTEVGSDSQMSNFSQHNIYLDGPDIRGRHAAIAFMEGVVTLTPSTRDAYLEVNGHQLMQTEILRDGDHIRIGADHSFKFSTSSSQANQINSTNISNSNQRHFQQQTFYPEMADSRASTARCAPSDYCSLPQQNDYYPPSMSGSSVSSSRQEDLMMHSNNNILPPYSTKSAQEPLQLPLSIQIGDYNVWDFLAEVMSNRAATSSEMSTFRLSPAYSLYLALRSFHTHNKPYSVQFFSRIESNFKQIAQECSSKDDLIFWLANASEFNHLVERDTELKASRYGKISVEIERIFRRLVAVLQSVIRPAARALLDIHLNDHDATGDVIHLLDTTMRQARICGLNAALTIQLCGHLLHMVNAFVFNSLVSVNLPAAQLNTRLGKCLQYRIESIHRFCERMGVEMAAECHLDRSRQAANLLATQKNDVAALGSTCYKLNSLQVVHILSGFEPDDGEIPCDDDVVDRICRLAEKQADKLTLEDGQRVTLEESDELNLPFLIPQDGYFVEQFRTVPDGLWQYLQQLQHRRLCHTVSLTPAPPAAMTHSMHAMHIGASDAHYHQHQHQQQQNPIVRSVSQTTLTSIPTTQFGDSFGSAVSDTISKVTLRKNGGGIGLSIVAAQGVGDRQMGIYVKKVVEGTPAAHDGRLETGDQLLSVNGHSLIGISQEEFVFQ	not soluble
MDLIPARIGLIYNPLGGWFRKHTARMQSLLATLPEIRQIQATDQIEFERAVTVVVEAKIGWLIVVGGDGTLQGVMSCLFECLPPDRWPEITIVPAGTTNMTALDLGMNGQAEQILSRIRQHLQRPGDMKQVRRP	not soluble
MSLNKVRLGIIGLGAQGGTYAGFINDNKIANLELGAICDIDPEKRTVAAEKYPNVPFYDNYIDMLESGDVDAIVTTVPHYLHTEIGKEALSRDIHALLEKPGDIYAEKVKEISDLAASKPNLTFGIFFNQRTNPLYQKVKSLIDNGEIGEIRRTNWIITTWWRPQAYYDQSSWRATWSGEGGGVLVNQAPHQIDLLQWLCGLPKKVYANVKYGYQRDLNVDDDVTTVLDYGNGATGVFITCTHDIIGTDRLEITGDKGKILVEDSKKITLKSLNQSETQMNQDMTWEEVAELFKGNGMGDIYKEETFEFESVWGQQHISVLENFTANILDGTPLIAPGSDGINEGHHHHHH	soluble
GGIYGIGLDITELKRIASMAGRQKRFAERILTRSELDQYYELSEKRKNEFLAGRFAAKEAFSKAFGTGIGRQLSFQDIEIRKDQNGKPYIICTKLSPAAVHVSITHTKEYAAAQVVIERLSS	soluble
MNIITLKVAIVEPLPMIRAGLEALLKKITGYKIQFIDAPADNGWVDVISFYCPDVVFMNPLVSGLTRNESDKACPQSRYVGLLTTPIDSNMLHNYDDTLSVHATVEELKQLLERLYQKTLEPEESGEEQQTLTNREKEIVVGVVKGMTNKEIAEELFLSTHTVITHRRNIAKKLQIHSPSGLTIYAIMNKLVNLDEIAH	not soluble
MGSDKIHHHHHHMKFFSLADEAEFKSIIISKNKAVDVIGSKLGGQVVSFSDEWFASAENLIQPTAPIRDPTRFVHSGAWYDGWETRRHNEMEYDWVIIKMGVAAAHIIGGEIDTAFFNGNHAPFVSIEALYDEGEEGNIVEDDSRWVEIVEKFECGPSQRHLFVRGNGLTKERFTHIKLKMYPDGGIARFRLYGRVVPPELKTKDHIIDLAYVCNGAVALKYSDQHFGSVDNLLLPGRGHDMSDGWETKRSRQPGHTDWAVIQLGRESSFIEKIIVDTAHFRGNFPQFITVEGCLKESESSENTGEGTWVELVGKSKTGPDKEHVYEIRKSIRVSHVKLTIIPDGGVKRIRVWGY	soluble
THGAQHANPVVSGSVSPRPAPAKEQPSVAPSQSSVPPQPSIGEQRRQPETTAPTITEDKPEQTKVVPPTRPMATSTVGSEGRFTLRGIRNKQEQLQNNIQEVRTEMTESFDEEQLQLAWIEFAETKLSEEIHLKETMANCLPKLRPGTSAFEVEVLNSRQEEEINNVSARLLSFLADKLCNTTIRMNVRVSESTSLNRVPVSLDEKIERLNQENPLFDELRMRLGLSLV	not soluble
MGSDKIHHHHHHMIQYKRCSEVSIDLVYEAFRDGFSDYIIKMEVSKEDFIKRFFGAEGNSLKHSFVALDGNKSVGVILGGIKDYENIKTMRCGTLAVHPNYRGIGVSQKLFELHKDEAIQNGCKQLFLEVIVGNDRAIRFYNKLGYEKVYDLSYYNLKDMTKIIHKECKGIEVKQLEFPAFKVEIQKWLHFHINWQNDMDYIEKTNHTFYGAYVDNDLKGSICINEQGKISFIFIDKEYRNRGIGSKLLQVARDELNLESLLISFPNNSLLEGFLKKTGFEKNSLAQYEMYVLL	not soluble
MGHHHHHHSHMLSPNPLNSRAVEDISSSRTNPYSYAMSTEEARFLTYHMWPLTFLSPSELARAGFYYIGPGDRVACFACGGKLSNWEPKDDAMSEHRRHFPNCPFLENSLETLRFSISNLSMQTHAARMRTFMYW	not soluble
